Biological target: T1, CD19 on the CD19-positive human leukemia cell line Nalm-6 (human, UniProt P15391 20-556)
T1 sequence (looked up): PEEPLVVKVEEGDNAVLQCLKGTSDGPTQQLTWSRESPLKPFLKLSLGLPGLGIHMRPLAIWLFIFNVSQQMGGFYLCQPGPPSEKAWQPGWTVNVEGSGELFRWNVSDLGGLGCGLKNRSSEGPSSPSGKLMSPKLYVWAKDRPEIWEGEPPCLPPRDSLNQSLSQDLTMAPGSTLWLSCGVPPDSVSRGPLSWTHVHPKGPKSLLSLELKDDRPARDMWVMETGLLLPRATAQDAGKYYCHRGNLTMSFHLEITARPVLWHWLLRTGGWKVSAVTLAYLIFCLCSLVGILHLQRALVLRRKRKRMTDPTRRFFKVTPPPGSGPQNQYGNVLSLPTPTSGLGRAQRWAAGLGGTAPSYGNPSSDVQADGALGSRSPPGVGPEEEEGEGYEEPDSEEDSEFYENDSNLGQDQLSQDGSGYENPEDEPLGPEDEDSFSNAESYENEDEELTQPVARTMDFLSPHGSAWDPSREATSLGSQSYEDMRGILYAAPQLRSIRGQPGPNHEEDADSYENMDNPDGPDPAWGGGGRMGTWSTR
Test: cell-based or functional assay

B1: CD19-targeted chimeric antigen receptor (CAR) of SEQ ID NO. 1, expressed on the surface of CNCT19 cells (other)
chain: GSDIVLTQSPKFMSTSVGDRVSVTCKASQNVGTNVAWYQQKPGQSPKPLIYSATYRNSGVPDRFTGSGSGTDFTLTITNVQSKDLADYFCQQYNRYPYTSGGGTKLEIKRGGGGSGGGGSGGGGSQVQLQQSGAELVRPGSSVKISCKASGYAFSSYWMNWVKQRPGQGLEWIGQIYPGDGDTNYNGKFKGQATLTADKSSSTAYMQLSGLTSEDSAVYFCARKTISSVVDFYFDYWGQGTTLTVSSEFTTTPAPRPPTPAPTIASQPLSLRPEACRPAAGGAVHTRGLDFACDIYIWAPLAGTCGVLLLSLVITLYCKRGRKKLLYIFKQPFMRPVQTTQEEDGCSCRFPEEEEGGCELRVKFSRSADAPAYQQGQNQLYNELNLGRREEYDVLDKRRGRDPEMGGKPRRKNPQEGLYNELQKDKMAEAYSEIGMKGERRRGKGHDGLYQGLSTATKDTYDALHMQALPPR
IL-6 secreted by CNCT19 cells after 24 h co-culture with Nalm-6 target cells, effector/target ratio 2:1: 32.2 pg/mL | INF-γ secreted by CNCT19 cells after 24 h co-culture with Nalm-6 target cells, effector/target ratio 2:1: 6190 pg/mL | residual rate of target cells (Nalm-6) after 24 h co-culture with CNCT19 cells, effector/target ratio 1:2, flow cytometry: 2.8% | residual rate of target cells (Nalm-6) after 24 h co-culture with CNCT19 cells, effector/target ratio 2:1, flow cytometry: 1.1%
